Molecular target: human carcinoembryonic antigen (CEA) (Homo sapiens, UniProt P06731)
Experiment: flow cytometry on cells

Chain of human carcinoembryonic antigen (CEA) (P06731 35-685): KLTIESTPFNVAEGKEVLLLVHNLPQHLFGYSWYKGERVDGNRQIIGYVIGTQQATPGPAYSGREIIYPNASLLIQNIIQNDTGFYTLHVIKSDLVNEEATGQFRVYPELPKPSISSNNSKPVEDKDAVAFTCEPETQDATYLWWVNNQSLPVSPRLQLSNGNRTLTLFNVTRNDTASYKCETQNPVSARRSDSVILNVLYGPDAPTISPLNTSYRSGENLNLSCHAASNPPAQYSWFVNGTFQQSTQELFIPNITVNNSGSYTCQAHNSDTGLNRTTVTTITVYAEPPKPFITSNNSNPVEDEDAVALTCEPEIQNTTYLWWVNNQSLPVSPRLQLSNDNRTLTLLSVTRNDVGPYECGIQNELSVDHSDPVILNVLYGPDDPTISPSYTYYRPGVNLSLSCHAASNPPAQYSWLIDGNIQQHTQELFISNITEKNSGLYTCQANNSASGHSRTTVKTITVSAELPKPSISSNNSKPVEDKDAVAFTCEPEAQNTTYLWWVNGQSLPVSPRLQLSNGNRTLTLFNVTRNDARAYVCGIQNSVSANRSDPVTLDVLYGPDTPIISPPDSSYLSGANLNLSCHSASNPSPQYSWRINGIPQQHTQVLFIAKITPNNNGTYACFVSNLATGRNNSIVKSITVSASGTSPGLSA

B1: Sm3E-TNF (scFv, V domains shown)
VH: QVKLEQSGAEVVKPGASVKLSCKASGFNIKDSYMHWLRQGPGQRLEWIGWIDPENGDTEYAPKFQGKATFTTDTSANTAYLGLSSLRPEDTAVYYCNEGTPTGPYYFDYWGQGTLVTVSS
VL: ENVLTQSPSSMSVSVGDRVTIACSASSSVPYMHWLQQKPGKSPKLLIYLTSNLASGVPSRFSGSGSGTDYSLTISSVQPEDAATYYCQQRSSYPLTFGGGTKLEIK
binding result: binds

— doi:10.1101/698563 (bioRxiv, 2019)
